# Patent US20100291682, “SYSTEM FOR TRANSPOSING HYPERACTIVE RECOMBINANT DERIVATIVES OF MOS-1 TRANSPOSON” (published 2010)
# Numbering of substitutions follows the chain as printed.
# T1: Mos-1 transposase QY (Drosophila mauritiana, UniProt Q7JQ07 SEQ:1-345, Q91R,Y237C)
# T1 sequence: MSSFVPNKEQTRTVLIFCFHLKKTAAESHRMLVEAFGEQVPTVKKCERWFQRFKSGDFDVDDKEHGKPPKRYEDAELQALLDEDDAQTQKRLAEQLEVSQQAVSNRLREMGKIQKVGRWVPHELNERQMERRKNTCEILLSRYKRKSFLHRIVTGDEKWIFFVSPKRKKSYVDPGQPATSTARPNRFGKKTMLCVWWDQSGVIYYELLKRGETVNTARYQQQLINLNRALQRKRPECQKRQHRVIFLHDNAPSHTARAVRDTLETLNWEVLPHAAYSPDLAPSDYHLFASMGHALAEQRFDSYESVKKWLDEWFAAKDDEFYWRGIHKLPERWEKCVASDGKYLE
# T2: MBP-Mos-1 transposase (MBP-Tnp) (Drosophila mauritiana, UniProt Q7JQ07 SEQ:1-345)
# T2 sequence: T1 sequence with R91Q, C237Y
# T3: Mos-1 transposase FTY (Drosophila mauritiana, UniProt Q7JQ07 SEQ:1-345, F53Y,T216A,Y237C)
# T3 sequence: T1 sequence with F53Y, R91Q, T216A
# T4: Mos-1 transposase FQET (Drosophila mauritiana, UniProt Q7JQ07 SEQ:1-345, F53Y,Q91R,E137K,T216A)
# T4 sequence: T1 sequence with F53Y, E137K, T216A, C237Y
# B1: ITR46 (dsDNA)
# DNA 1: TCAGGTGTACAAGTATGAGATGTCGTTT
# DNA 2: AAACGACATCTCATACTTGTACACCTGA
# B2: ITR40 (dsDNA)
# DNA 1: TCAGGTGTACAAGTATGTAATGTCGTTA
# DNA 2: TAACGACATTACATACTTGTACACCTGA
# Legend:
# Mos-1 transposase QY = target: T1, Mos-1 transposase QY; assay: cell_activity; 3T46 transposition in E. coli T5 vs 3T3/WT; settings: chain copies: 2
# Experimental: (§1) Escherichia coli JM109 bacteria were co-transformed with the pBC 3T3 plasmid (comprising a transposition reporter 2 ITR 3′ mariner-like element and the chloramphenicol resistance gene) and with the inducible vector encoding for the transposase (pKK-Tnp or pMal-Tnp) comprising the ampicillin resistance gene. The bacteria selection was performed on ampicillin (100 μg/ml) and chloramphenicol in order to verify the presence of the two plasmids.
# (§2) The JM109 bacteria containing both the pBC 3T3 plasmid and the pKK-Tnp (or pMalC2X-Tnp) plasmid were placed in culture for 1 hr at 37° C. in 250 μl of LB. This inoculum was then poured into 5 ml of LB supplemented with 1 mM IPTG. The culture was titrated on LB plates (100 μl of a 1/1000 dilution) and on LB-Tet plates (12.5 μg/ml) (250 μl of the non-diluted culture). The culture induced by IPTG was then cultured for 5 hours at 32° C. (optimal temperature of transposase) under stirring (250 rpm). The bacterial suspension was then titrated on LB plates (100 μl of a 1/250,000 dilution) and on LB-tet plates (100 μl of the undiluted bacterial suspension). The plates were placed at 37° C. overnight. The following day, the colonies were counted on LB and LB-Tet plates, and the transposition frequency (equal to the number of tetracycline bacteria over the number of bacterial per 1 ml of undiluted bacterial suspension) was calculated.
# (§3) In order to evaluate the transposition efficiency of systems associating a hyperactive transposase and a pseudo-transposon that is also hyperactive, various combinations were tested in the transposition test in bacteria described in part I, paragraph I-B above.
# [1] = target: T2, MBP-Mos-1 transposase (MBP-Tnp); assay: competition; competes with labelled ITR3'; settings: tags: N-terminal MBP (pMalC2x); chain copies: 2
# Experimental: The principle of these tests is illustrated in FIG. 9. […] The greater the shift, the greater the “improvement” of the ITRSelex sequence with respect to ITR3′. In practice, the transposase fixing reaction is carried out in 20 μl containing 10 mM of Tris pH9 buffer, 0.5 mM of DDT, 5 mM MgCl₂, 5% (vol/vol) of glycerol, 1 μg of herring sperm DNA and 100 ng of BSA, in the presence of 15 nM of radiolabelled ITR3′ and non-radiolabelled ITRSelex. The non-radiolabelled ITRSelex concentrations tested were 0 nM, 15 nM, 75 nM, 150 nM, 300 nM, 750 nM, 1500 nM.
# Mos-1 transposase FTY = target: T3, Mos-1 transposase FTY; assay: cell_activity; 3T40 transposition in E. coli T5 vs 3T3/WT; settings: chain copies: 2
# Experimental: as §1, §2, §3
# Mos-1 transposase FQET = target: T4, Mos-1 transposase FQET; assay: as above; settings: chain copies: 2
# Experimental: as §1, §2, §3
Binder,activity (Mos-1 transposase QY),binding result [1],activity (Mos-1 transposase FTY),activity (Mos-1 transposase FQET)
B1,1.7 fold,–,–,–
B2,–,binds,2.4 fold,3.7 fold
